# Reference: patent US20240327544A1 (BIONTECH, published 2024)
# “And” between values parts separate entries of the source, which are not always exact repeats. Equal entries are not always repeated.
# B1: IgG1-PD1 (antibody)
# heavy: QVQLVESGGGLVQPGTSLRLSCSVSGFSLYSYNMGWVRQAPGKGLEYIGIISGGTIGHYASWAKGRFTISRDTSKTTLYLQMNSLTTEDTATYFCARAFYDDYDYNVWGPGTLVTVSSASTKGPSVFPLAPSSKSTSGGTAALGCLVKDYFPEPVTVSWNSGALTSGVHTFPAVLQSSGLYSLSSVVTVPSSSLGTQTYICNVNHKPSNTKVDKRVEPKSCDKTHTCPPCPAPEFERGPSVFLFPPKPKDTLMISRTPEVTCVVVDVSHEDPEVKFNWYVDGVEVHNAKTKPREEQYNSTYRVVSVLTVLHQDWLNGKEYKCKVSNKALPAPIEKTISKAKGQPREPQVYTLPPSREEMTKNQVSLTCLVKGFYPSDIAVEWESNGQPENNYKTTPPVLDSDGSFFLYSKLTVDKSRWQQGNVFSCSVMHEALHNHYTQKSLSLSPG
# light: AIQLTQSPSSLSASVGGTVTITCQSSQSVYGNNQLSWYQQKPGQPPKLLIYQASKLETGVPSRFRGSGSGTQFTLTISSLQSEDFATYYCAGGYSSSSDTTFGGGTEVVVKRTVAAPSVFIFPPSDEQLKSGTASVVCLLNNFYPREAKVQWKVDNALQSGNSQESVTEQDSKDSTYSLSSTLTLSKADYEKHKVYACEVTHQGLSSPVTKSFNRGEC
# notes: Humanized rabbit anti-PD-1 antibody, Fc-inert IgG1 kappa; also called MAB-19-0618 variable regions in a human IgG1m(f) L234F/L235E/G236R (FER) backbone
# Assays:
# [1] = target: human PD-1, full-length, expressed on cells (human, UniProt Q15116 25-288); experiment: cell-based or functional assay
# human PD-1, full-length, expressed on cells, sequence (Q15116 25-288 limits assumed): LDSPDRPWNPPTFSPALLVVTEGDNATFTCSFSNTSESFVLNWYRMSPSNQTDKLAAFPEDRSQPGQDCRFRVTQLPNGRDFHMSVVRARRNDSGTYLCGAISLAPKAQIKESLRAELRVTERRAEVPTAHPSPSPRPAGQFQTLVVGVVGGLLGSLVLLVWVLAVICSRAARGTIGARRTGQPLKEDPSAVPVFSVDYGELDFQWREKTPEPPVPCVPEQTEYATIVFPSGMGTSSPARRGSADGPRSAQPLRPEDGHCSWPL
# [2] = target: T1, C1q (complement protein C1q from human serum) (human, UniProt P02745 23-245; P02746 28-253; P02747 29-245); experiment: flow cytometry, activated human CD8+ T cells, FITC anti-C1q
# T1 construct: Human serum (20%) was the source of C1q
# T1 sequence (P02745 23-245 limits assumed, chain 1 of 3): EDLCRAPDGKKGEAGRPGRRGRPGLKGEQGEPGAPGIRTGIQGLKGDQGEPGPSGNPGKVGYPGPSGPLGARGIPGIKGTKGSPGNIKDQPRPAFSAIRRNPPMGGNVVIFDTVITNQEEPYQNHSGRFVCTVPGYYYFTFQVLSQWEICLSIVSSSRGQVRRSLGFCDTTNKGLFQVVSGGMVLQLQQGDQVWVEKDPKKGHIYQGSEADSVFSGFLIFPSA
# T1 sequence (P02746 28-253 limits assumed, chain 2 of 3): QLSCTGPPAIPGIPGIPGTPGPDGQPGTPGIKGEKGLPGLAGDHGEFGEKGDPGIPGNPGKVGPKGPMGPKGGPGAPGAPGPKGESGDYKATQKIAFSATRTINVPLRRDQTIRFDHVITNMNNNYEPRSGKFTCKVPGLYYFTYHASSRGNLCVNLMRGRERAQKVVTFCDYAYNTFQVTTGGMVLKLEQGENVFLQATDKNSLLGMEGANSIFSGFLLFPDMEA
# T1 sequence (P02747 29-245 limits assumed, chain 3 of 3): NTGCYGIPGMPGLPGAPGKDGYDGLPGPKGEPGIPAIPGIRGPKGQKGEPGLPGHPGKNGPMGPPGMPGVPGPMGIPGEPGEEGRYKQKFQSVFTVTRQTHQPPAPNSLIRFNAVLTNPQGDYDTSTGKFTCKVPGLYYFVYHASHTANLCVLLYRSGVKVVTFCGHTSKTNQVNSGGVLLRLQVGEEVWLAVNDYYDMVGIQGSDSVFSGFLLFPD
binder,measurement,setting,value
B1,"EC50 of PD-1/PD-L1 checkpoint blockade (luminescence, PD-1/PD-L1 blockade reporter assay)",[1],0.165 µg/mL and 1.12 nM
same,binding result,[2],"no binding (tested: antibody up to 30 µg/mL, 20% human serum)"
